Series [1] has as its system EcSSB H55Y (Escherichia coli). Put plainly: optical tweezers. The settings on record: 5 nM monomeric H55Y, k-b/kb, 12 pN, 50 mM Na+, 10 mM HEPES pH 7.5, room temperature, ssDNA at 12 pN unless stated, Mg2+ buffer adds 4 mM Mg2+, AFM 10 mM Na+, 10 mM Mg2+.
Series [2] has as its system EcSSB WT (Escherichia coli). Put plainly: optical tweezers. The settings on record: 12 pN, 50 mM Na+, 10 mM HEPES pH 7.5, room temperature, ssDNA at 12 pN unless stated, Mg2+ buffer adds 4 mM Mg2+, AFM 10 mM Na+, 10 mM Mg2+.

Usually Kd stands for a measure of binding affinity in units of concentration. Lower therefore signals tighter binding. Regarding 8.1 knt ssDNA (pBACgus11), the dissociation constant Kd in series [1] is 0.1 nM; in series [2] (EcSSB8 mode, fit of equilibrium fractions (Fig. 2C)) it was 0.04 nM; in series [2] (single-domain unwrapped EcSSB8 mode, from k-b/kb), 0.08 nM.

(Values after PMC7897507.)
